Assays:
hMPV100 = molecular target: T1, hMPV100 (hMPV B, UniProt Q6WB98 19-102); experiment: BLI, no stress
T1 construct: T411C-Q434C
Protocol: (§1) All measurements were conducted at 30° C. temperature in 96-well black plates (Corning, Corning, NY) with a final volume of 240 μL per well at a constant agitation rate of 1000 RPM.
(§2) Conformation integrity of hMPV B F protein mutants were evaluated by a thermal stress experiment. Crude cell culture supernatants were normalized based on the results of the titer quantitation and then incubated for 1 hour at room temperature and two higher temperatures. For the testing of hMPV B single mutants, the two temperatures were 53° C. and 56° C. After the incubation, the protein mutants were probed with prefusion specific monoclonal antibody hMPV-2 by OCTET HTX. Anti-Human IgG Fc Capture (AHC) biosensors were first equilibrated in PB before being dipped into more PB for to establish the initial baseline. Biosensors were incubated with hMPV-2 before being equilibrated in PB to establish the experimental baseline. The mAb-bound biosensors were then dipped into the thermal stresses cell culture supernatants for 5 minutes.

hMPV102 = molecular target: T2, hMPV102 (hMPV B, UniProt Q6WB98 19-102); experiment: BLI, no stress
T2 construct: L141C-A161C
Protocol: as §1, §2

hMPV105 = molecular target: T3, hMPV105 (hMPV B, UniProt Q6WB98 19-102); experiment: BLI, no stress
T3 construct: G239A
Protocol: as §1, §2

hMPV106 = molecular target: T4, hMPV106 (hMPV B, UniProt Q6WB98 19-102); experiment: BLI, no stress
T4 construct: T49I
Protocol: as §1, §2

hMPV B F WT Control [1] = molecular target: T5, hMPV B F WT Control (hMPV B, UniProt Q6WB98 19-102); experiment: BLI, no stress
Protocol: as §1, §2

hMPV103 = molecular target: T6, hMPV103 (hMPV B, UniProt Q6WB98 19-102); experiment: BLI, no stress
T6 construct: E146C-T160C
Protocol: as §1, §2

hMPV104 = molecular target: T7, hMPV104 (hMPV B, UniProt Q6WB98 19-102); experiment: BLI, no stress
T7 construct: A459P
Protocol: as §1, §2

hMPV108 = molecular target: T8, hMPV108 (hMPV B, UniProt Q6WB98 19-102); experiment: BLI, no stress
T8 construct: T365I
Protocol: as §1, §2

hMPV101 = molecular target: T9, hMPV101 (hMPV B, UniProt Q6WB98 19-102); experiment: BLI, no stress
T9 construct: A140C-S149C
Protocol: as §1, §2

hMPV136 = molecular target: T10, hMPV136 (hMPV B, UniProt Q6WB98 19-102); experiment: BLI, 63C stress
T10 construct: A140C-S149C, A459P
Protocol: as §2

hMPV128 = molecular target: T11, hMPV128 (hMPV B, UniProt Q6WB98 19-102); experiment: BLI, 63C stress
T11 construct: T49I, A140C-S149C, G239A, T411C-Q434C, A459P
Protocol: as §2

hMPV118 = molecular target: T12, hMPV118 (hMPV B, UniProt Q6WB98 19-102); experiment: BLI, 63C stress
T12 construct: T49I, T150C-R156C
Protocol: as §2

hMPV123 = molecular target: T13, hMPV123 (hMPV B, UniProt Q6WB98 19-102); experiment: BLI, 63C stress
T13 construct: A140C-S149C, G239A, T411C-Q434C
Protocol: as §2

hMPV129 = molecular target: T14, hMPV129 (hMPV B, UniProt Q6WB98 19-102); experiment: BLI, 63C stress
T14 construct: T49I, A140C-S149C, G239A, T365I, T411C-Q434C, A459P
Protocol: as §2

hMPV137 = molecular target: T15, hMPV137 (hMPV B, UniProt Q6WB98 19-102); experiment: BLI, 63C stress
T15 construct: T49I, A140C-S149C
Protocol: as §2

hMPV121 = molecular target: T16, hMPV121 (hMPV B, UniProt Q6WB98 19-102); experiment: BLI, 63C stress
T16 construct: L141C-A161C, T411C-Q434C
Protocol: as §2

hMPV139 = molecular target: T17, hMPV139 (hMPV B, UniProt Q6WB98 19-102); experiment: BLI, 63C stress
T17 construct: T49I, L141C-A161C, T411C-Q434C
Protocol: as §2

hMPV122 = molecular target: T18, hMPV122 (hMPV B, UniProt Q6WB98 19-102); experiment: BLI, 63C stress
T18 construct: A140C-S149C, T411C-Q434C, A459P
Protocol: as §2

hMPV124 = molecular target: T19, hMPV124 (hMPV B, UniProt Q6WB98 19-102); experiment: BLI, 63C stress
T19 construct: L141C-A161C, T411C-Q434C, A459P
Protocol: as §2

hMPV134 = molecular target: T20, hMPV134 (hMPV B, UniProt Q6WB98 19-102); experiment: BLI, 63C stress
T20 construct: T49I, L141C-A161C, S149T, G239A, T365I, T411C-Q434C, A459P
Protocol: as §2

hMPV144 = molecular target: T21, hMPV144 (hMPV B, UniProt Q6WB98 19-102); experiment: BLI, 63C stress
T21 construct: T49I, L141C-A161C, S149T, A459P
Protocol: as §2

hMPV131 = molecular target: T22, hMPV131 (hMPV B, UniProt Q6WB98 19-102); experiment: BLI, 63C stress
T22 construct: T49I, L141C-A161C, G239A, T411C-Q434C, A459P
Protocol: as §2

hMPV B F WT Control [2] = molecular target: T5, hMPV B F WT Control; experiment: BLI, 63C stress
Protocol: as §2

hMPV130 = molecular target: T23, hMPV130 (hMPV B, UniProt Q6WB98 19-102); experiment: BLI, 63C stress
T23 construct: L141C-A161C, G239A, T411C-Q434C, A459P
Protocol: as §2

hMPV127 = molecular target: T24, hMPV127 (hMPV B, UniProt Q6WB98 19-102); experiment: BLI, 63C stress
T24 construct: A140C-S149C, G239A, T411C-Q434C, A459P
Protocol: as §2

hMPV142 = molecular target: T25, hMPV142 (hMPV B, UniProt Q6WB98 19-102); experiment: BLI, 63C stress
T25 construct: L141C-A161C, S149T, A459P
Protocol: as §2

hMPV133 = molecular target: T26, hMPV133 (hMPV B, UniProt Q6WB98 19-102); experiment: BLI, 63C stress
T26 construct: T49I, L141C-A161C, S149T, G239A, T411C-Q434C, A459P
Protocol: as §2

hMPV135 = molecular target: T27, hMPV135 (hMPV B, UniProt Q6WB98 19-102); experiment: BLI, 63C stress
T27 construct: T49I, S149T, A459P
Protocol: as §2

hMPV125 = molecular target: T28, hMPV125 (hMPV B, UniProt Q6WB98 19-102); experiment: BLI, 63C stress
T28 construct: L141C-A161C, G239A, T411C-Q434C
Protocol: as §2

hMPV138 = molecular target: T29, hMPV138 (hMPV B, UniProt Q6WB98 19-102); experiment: BLI, 63C stress
T29 construct: T49I, A140C-S149C, A459P
Protocol: as §2

hMPV117 = molecular target: T30, hMPV117 (hMPV B, UniProt Q6WB98 19-102); experiment: BLI, 63C stress
T30 construct: T150C-R156C, A459P
Protocol: as §2

B1: hMPV-2 mAb (antibody, V domains shown)
VH: QVQLQQSGAEVKKPGASVKVSCKASGYTFTSYGISWVRQAPGQGLEWMGWISGYNGNTNYAQTFQGTFTMTTDTSTSTAYMELRRLRSGDTAVYYCARDRYYASGSYNGMDVWGQGTTVTVSS
VL: QSALTQPPSASGAPGQRVTVSCSGSSSNVGSSSVYWYQQLPGTAPKLLIYRNNQRPSGVPDRFSGSKSGTSASLAISGLRSEDEADYYCAAWDDSLSGWVFGGGTKLTVLG
notes: human IgG1
Response Shift (hMPV100): 0.863 nm
Response Shift (hMPV102): 0.84 nm
Response Shift (hMPV105): 0.906 nm
Response Shift (hMPV106): 0.912 nm
Response Shift (hMPV B F WT Control [1]): 0.867 nm
Response Shift (hMPV103): 0.814 nm
Response Shift (hMPV104): 0.85 nm
Response Shift (hMPV108): 0.89 nm
Response Shift (hMPV101): 0.707 nm
Response Shift (hMPV136): -0.027 nm
Response Shift (hMPV128): 0.746 nm
Response Shift (hMPV118): 0.028 nm
Response Shift (hMPV123): 0.549 nm
Response Shift (hMPV129): 0.661 nm
Response Shift (hMPV137): 0.238 nm
Response Shift (hMPV121): 0.078 nm
Response Shift (hMPV139): 0.456 nm
Response Shift (hMPV122): 0.665 nm
Response Shift (hMPV124): 0.065 nm
Response Shift (hMPV134): 0.733 nm
Response Shift (hMPV144): -0.015 nm
Response Shift (hMPV131): 0.679 nm
Response Shift (hMPV B F WT Control [2]): 0.017 nm
Response Shift (hMPV130): 0.079 nm
Response Shift (hMPV127): 0.696 nm
Response Shift (hMPV142): 0.054 nm
Response Shift (hMPV133): 0.62 nm
Response Shift (hMPV135): -0.015 nm
Response Shift (hMPV125): 0.233 nm
Response Shift (hMPV138): 0.156 nm
Response Shift (hMPV117): 0 nm

From US20240252614A1 (Pfizer, published 2024)
